{"source": "paper PMC11770808", "about": "“Interplay between conformational dynamics and substrate binding regulates enzymatic activity: a single-molecule FRET study” (Chemical Science, 2025)", "system": "T1, Nc1ncnc2c1ncn2[C@@H]1O[C@H](COP(=O)(O)OP(=O)(O)O)[C@@H](O)[C@H]1O", "T1 construct": "purified recombinant, details only in ESI", "experiment": "coupled assay (hexokinase / glucose-6-phosphate dehydrogenase), initial velocities fitted to Michaelis-Menten", "assay_type": "biochemical, Escherichia coli", "conditions": "backward reaction, 0 M urea, dye-labelled enzyme (A73C/V142C background inferred), 50 mM Tris-HCl pH 8.0, 100 mM KCl, 10 mM MgCl2", "data": [{"substance": "adenylate kinase (AK), wild-type (WT) (Escherichia coli K-12; A73C/V142C)", "values": [{"measurement": "Km", "value": "1340(±98) µM"}]}]}
